Experimental data reported in PMC4188261.

Molecular target: Burkholderia mallei BmaI1 acyl-homoserine lactone synthase (Burkholderia mallei ATCC23344)
Assay: steady-state enzyme kinetics

Substance: octanoyl-acyl carrier protein (E. coli ACP) (from UniProt P0A6A8 1-78) (natural protein)
- Kd: 0.125 µM
